This series is described as follows: soluble on expression in E. coli; label from the status in PepcDB or PDB records.
As to “MNRFIIADATKCIGCRTCEVACAVSHHENQDCAALSPDEFISRIRVIKDHCWTTAVACHQCEDAPCANVCPVDAISREHGHIFVEQTRCIGCKSCMLACPFGAMEVVSSRKKARAIKCDLCWHRETGPACVEACPTKALQCMDVEKVQRHRLRQQPV”, the “soluble on expression in E. coli” value is on record as “not soluble”. In the case of “SLLCGPLRLSESGETWSEVWAAIPMSDPQVLHLQGGSQDGRLPRTIPLPSCKLSVPDPEERLDSGHVWKLQWAKQSWYLSASSAELQQQWLETLSTAAH” it was “soluble”; in that of “MKTITQQYLTGERALFKAHDLEIDNTTFADGESPLKESRNVTLKQPIFKWKYPLWYSQHVTVDQGLFETMSRSGIWYTKDITITNSTLQAPKLFRRASQVKLAHVHFSDAEETLWNCQDITLNDVQAAGDYFGMNSQNIRIDGFNLVGNYAFDGAKNVEIHHATLMTKDALWNCENVTVYDSQIIGEYLGWNSKNIRFVNCTIESDQGLCYMDNVKLENCTLLNTDLAFEYCRNIDADVVSTIDSVKNPLSGRIHAQAIGEIIMDDPEVDPHQTLISVDHESRAPHAV”, “not soluble”; in that of “MASVAAARAVPVGSGLRGLQRTLPLVVILGATGTGKSTLALQLGQRLGGEIVSADSMQVYEGLDIITNKVSAQEQRICRHHMISFVDPLVTNYTVVDFRNRATALIEDIFARDKIPIVVGGTNYYIESLLWKVLVNTKPQEMGTEKVIDRKVELEKEDGLVLHKRLSQVDPEMAAKLHPHDKRKVARSLQVFEETGISHSEFLHRQHTEEGGGPLGGPLKFSNPCILWLHADQAVLDERLDKRVDDMLAAGLLEELRDFHRRYNQKNVSENSQDYQHGIFQSIGFKEFHEYLITEGKCTLETSNQLLKKGIEALKQVTKRYARKQNRWVKNRFLSRPGPIVPPVYGLEVSDVSKWEESVLEPALEIVQSFIQGHKPTATPIKMPYNEAENKRSYHLCDLCDRIIIGDREWAAHIKSKSHLNQLKKRRRLDSDAVNTIESQSVSPDHNKEPKEKGSPGQNDQELKCSV”, “soluble”.

As for “MSLEKLLRYLNDNDADKWQKNREKLDDETKAYYAEDLSLMDVLNDLWNGQSEQAATLYFGCYEKAAQNNFPSICEGEKIPLSQIRDKADQSIINLLEASKDKIPFSRALLDSIHATEYPVDSAMLQRLQNIREVALLEGMLKAPTPIIYQTYVKEYPNGKFIAQVNASENVRLYQLVKTAPTPANFKAFFEDPEMQKYYQDRGPRPYLAEVRTLYDDFLFQRIDSLKKEGNATAIRQIIDDYKNTPYLSTGARTHLNDLEYLSEKADFELLKPAIVNSESLGLLQEFLKTHKYKEFRDQAKNLRAPFILQAIVSTPTTVKYYTQGRLIKCCETDSTGNITTSYTYNDKGQLTTTLSVTEKNGQPINEVQTSRLYDPQGHCIFEVKTNPKTKTDFYRRARRIGIDGSIESDSLKYMDGRYTVSSYNKQGLLTETKEYNKNGEMEGYTVNKYDDKGRMTESQHQNMLFVNSPNQILSQKELYEYDKYGYLTRIVYQRIFGNSQKTSGCLTCLYDEYGNRIDGDSYYEYDNTGQWICRTSYDNPQQVERIQYIYKEGHHHHHH”, the “soluble on expression in E. coli” value was “soluble”.

Take “MFGNLGQAKKYLGQAAKMLIGIPDYDNYVEHMKTNHPDKPYMSYEEFFRERQNARYGGDGKGGMRCC”: the “soluble on expression in E. coli” value was “soluble”. In the case of “TSKCTIIPGSGFRNDEGKYEIIADKCIEADYPQKDEVAAAAYMNKYVEEVILRAPEQWMWLHKRYKTMQDENEPKGIRYK” it was “not soluble”; in that of “MSDGKEELVNRAKLAEQAERYDDMAASMKKVTELGAELSNEERNLLSVAYKNVVGARRSSWRVISSIEQKTEGSEKKQQMAKEYREKVEKELRDICQDVLNLLDKFLIPKAGAAESKVFYLKMKGDYYRYLAEVASGDDRNSVVEKSQQSYQEAFDIAKDKMQPTHPIRLGLALNFSVFFYEILNAPDKACQLAKQAFDDAIAELDTLNEDSYKDSTLIMQLLRDNLTLWTSDAATDDTDANETEGGN”, “soluble”; in that of “MKTDGEFVSEHLMELITQQNLTINRVATLAGLNQSTVNAMFEGRSKRPTITTIRKVCGTLGISVHDFFDFPPYNEVEK”, “soluble”. In the case of “MGSDKIHHHHHHMSNTVRAISPDITLFNKTLTFQEISQNTREAVIYIHGGAWNDPENTPNDFNQLANTIKSMDTESTVCQYSIEYRLSPEITNPRNLYDAVSNITRLVKEKGLTNINMVGHSVGATFIWQILAALKDPQEKMSEAQLQMLGLLQIVKRVFLLDGIYSLKELLIEYPEYDCFTRLAFPDGIQMYEEEPSRVMPYVKKALSRFSIDMHLVHSYSDELLTLRQTNCLISCLQDYQLSFKLYLDDLGLHNDVYKNGKVAKYIFDNIC”, the “soluble on expression in E. coli” value is reported as “soluble”.

Consider “MAHHHHHHMATARSYFYYLDAHGNLFPVTDIKGLIDGTNIPAGPIQLRDRAFLDFFYLRLKRSDVEDAAACSNVSDRREEGELLLHSGAKLTPQEVVQHFPYVSICGPERNFLKAEEAPLVFVNYTSGHPKCKQQNGTLAFGESLWEDFQPQALVVTREGKLFHPITKLKNLIATQNGAGDAVPRGLVEAQVVKKLGLELVCDSAKSGYYVLEWKGQKQRIPYFDEL”, for which the “soluble on expression in E. coli” value is “not soluble”.

Turning to “MSLYGRHTISIILREIFRLMDYPSIDTLLESAHIVTLPMKYPFMGLSERQAVLFEGPNSWAEYSPFMGCNDTRMWLASAIEYGWGNTNVLSVPNLDLDNTNFASRSKYGYIANPQTSNKDHSDNKRFYTQTKNHREIPVNAILPDIPASKMSEILGKDLQGCKCVKIKVGKHFQDRDIHRIRAVLDFMGADTMLRLDANCKWNVSETLNNLDVLEDNDLLENVSYIEQPCRTTRELITLKQKMDTRGYVTKIAIDESLRDLLLHWQKNRKWSNNSGITYTTELRETLSACDMLVLKLQPMGGMRAVADLLESIKNNIKVNVGYTVSSSLETSLGIEMGLALALNLPNITLPVGLATAGLLDADITDDPLLPNKGYITPRKIEVNKKLLNRYAADKRHVVWWHRRIRAAHRALFQDLSDEGHHHHHH”, the “soluble on expression in E. coli” value is reported as “not soluble”.

For “GSHMFYAVRRGRKTGVFLTWNECRAQVDRFPAARFKKFATEDEAWAFVRKSAS”, the “soluble on expression in E. coli” value is reported as “soluble”. In the case of “MLTVTDYYKELLNFCARTLKDRDAAADLVQEAYTRFLVAQRSGAAIADPRALLFRTTRNLLIDQHRRAEVRMHLSLDTLLEEEQPLAPRHLQPEEVLAFSRYAQALYAAIESLPRRCREAFILNRFDGLSHQEVAEKMGISRNMVAQHIIRGVLVCKACDDRFHGRVVLASKPAE” it was “not soluble”. Then “MGSDKIHHHHHHMKKNIIILGLISLLAVSCGDDFLTTHPGDSVSTDLALSTEQDIDNAVNGLYDLMSSYGYYGGTMFFYGDMKGDDMQSSYNSGRTCNRCYLYDHRSTSLNAGYLWGRPFYIIRNAWNVINAIDDGKVQGSEQRLKELKGEAMTIMALCQFDLTRCFGYPYTKDKGAGWGAPIVDHAITLDENPPRSTVAKDYEFIISTLEEAIPLMSTSKNNSRMNAYAARALLSRIYLYHDDNEKAFQMASNLIEEVEGNGMYRLYTRDEYVPAWDLKNTFGTESLFEIANSTDDNGGRSSLAYLMHWNGYREIFATQKFVDELLSDPEDIRCLLLEKNVYNKNDVWWLKKWPGTDATTPSFENNYVIFRLSEVYLNAAEAGVKIGGASAVKGLNYLNAIVQRANPAKEVTAAEYTLDRVLEERSKELIGEGHRFFDMLRNGKTIVRKGGYHLPGIVEEIDWDYYKCVLPIPTDQFTFSPDMEQNPGYTKN”, with “not soluble”; and “MARVRIVAKKNGPYLLEVDGKVQTALCRCGHSNNKPYCDGTHARVGFQADEKVAFEAEFAAALEHHHHHH”, with “not soluble”. In the case of “MAHHHHHHMADTQPVPATVTSAHGAHAEAFGESFIVTLSSENLRVQLLSHGAALNSVQVRKPHPAASATASASATAEQDDEWLEVCLGYTNPEEALSADAVIGHTIGRYAGRIANGEFEIANTTYTLAKNFGPHNLHGGPVGFQHQEWKYLLSDGRDETGVAFHLVSPHMDQGFPGELFVTATYSIIKSAPVPTLKYVLQASLSDNTPVDMTVINLTNHAYWNLNGVPRPAAADAVAPLPRSIANHYLQLQSKYFAVTDELSIPNGDMRPVEGTPHDYSALRCVAEGMEATKEEGRDGGGYDDPVALETWDSTLREAALVYSPATKLRMQVCTTNPAIVVYTANHLPADASGSKGQRFQQHSAICLECQYFPNSPNVRAFPSTVLKKGEAYNETTIHAFQFMNADITPEEKLLRRQ” it was “soluble”; in that of “MASKIEQPRWASKDSAAGAASTPDEKIVLEFMDALTSNDAAKLIEYFAEDTMYQNMPLPPAYGRDAVEQTLAGLFTVMSIDAVETFHIGSSNGLVYTERVDVLRALPTGKSYNLSILGVFQLTEGKITGWRDYFDLREFEEAVDLPLRG”, “soluble”.

Regarding “MAHHHHHHMKSHNLDLIKNQNFDKNHNFINYSELYKKYKEKYNVKSFNKLPVSTYTYPRYSKITNFDELKTELIYEKEINEIEEEYDDDDEQNNINNYDGNIEILFPMINEKENEDIKKKKTDNIYKSEKKSLRQRIYDGEVMFYEDYIEQLAVKDYEHFFKKPYEIKRKDEGGKNYFYGKKLEMNKEEDIYRKFYGFDDAYFLNKLQLKNKSPQKEKNKEEKQKKRNEEKILERQCGKKLSYEDKKFILNIIEENQLQDNSIYKYYMQNKCIFDKNLPEFKKKELLCGYIPDIILPANVRKVKHPKNCGVPLSSLHIYAQFIHELFKCPYIYNAIDVELGKYWKTNENELLNIMKSEKIKKGYKKDIYTATKEQLEKSSAKLKNLLKNDEVSDDTRKKFTINFKMPKKEKTNLVVSKGRYII”, the “soluble on expression in E. coli” value is listed as “soluble”.

As to “MHHHHHHSSGRENLYFQGTYNISVVGLSGTEKEKGQCGIGKSCLCNRFVRPSADEFHLDHTSVLSTSDFGGRVVNNDHFLYWGEVSRSLEDCVECKMHIVEQTEFIDDQTFQPHRSTALQPYIKRAAATKLASAEKLMYFCTDQLGLEQDFEQKQMPDGKLLVDGFLLGIDVSRGMNRNFDDQLKFVSNLYNQLAKTKKPIVVVLTKCDEGVERYIRDAHTFALSKKNLQVVETSARSNVNVDLAFSTLVQLIDK”, the “soluble on expression in E. coli” value is listed as “soluble”.

As for “MAAALKPSAPEIRKAAQEFINYLNKAVTPFHATQEVKDRLLQAGFTELPESGHWDIQPTSKYFVTKNRSAILAFAVGGSYKPGSGFSIVVGHTDSPCLRVKPISHQKSDKFLQVGVSTYGGGIWRTWFDRDLSVAGLVIVKNGEKLQHKLIDVKKPVLFIPNLAIHLETDRTTFKPNTETELRPILETFAAAGINAPQKPESTGFADPRNITNNHHPQFLGLIAKEAGCQPEDIVDLDLYLYDTNKAAIVGMEDEFISGARLDNQVGTYTAISGLLESLTGESFKNDPQIRIAACFDNEEVGSDSAMGASSSFTEFVLRRLSAGGSTTAFEEAIGKSMLISADQAHATHPNYSAKHEENHRPAFHGGVVVKVNVNQRYATTSTTHAALKQVAFEAQVPLQVVVVRNDSPCGSTVGPILATKLGLQTVDVGCPQLAMHSIREFADTSSIYQATTLYSTFYERLSTVLSNMQ”, the “soluble on expression in E. coli” value is given as “not soluble”.

On to “MGSDKIHHHHHHVSPRIVIVGAGPGGMATAIRLAGQGYQVEIFEAVDRPGGRMRGFSLGDYHFDTGPTILQVPRVYDELFSSAGLRFSDYVTLIRLDPNTRIRFWDGEYLDLTSNIAAFKAQLARFDPALPAEFERWYIEHIRKNVVGYEPYLGTPVRSPLVYLKPREIAAALAFRPWESLYDHFKRFFRDERVVYALSYQAKYLGMHPTACSSVFSLVTFLEFADGIWHPRGGFRALAAGLAKAATDLGVVIHYNSPVKQVLVEEGRACGVELVGGERIKADAVVVNADFGHALTHIIPPHARGTYTDQKLNSMEFSCSTFMLYLGVNRRWDHLPHHQLYLSANIRRNDPLWAKSAVLDEDDPSFYVCNPTIVDPTNAPPGHSTLFVLVPVPNLRYPVDWAAVEQRYRDLIIRQMAKLGFEDVERHIVVERRYTAETWRDEHHTYLGAVFNLIHSWSQLGPFRPHIRHNGARNLYWIGGAVHPGSGLMTILEAAKSAVHFIGEDLPLHQTTAVAH”, for which the “soluble on expression in E. coli” value is on record as “not soluble”.

The values above are taken from the DeepSol protein solubility set.
